According to patent publication US20130064834A1 (published 2013):

T1: Chimeric protein #1 (mPro-hCat-mC-term-mmh) (mouse; human, UniProt Q80W65 35-694)
T1 chain: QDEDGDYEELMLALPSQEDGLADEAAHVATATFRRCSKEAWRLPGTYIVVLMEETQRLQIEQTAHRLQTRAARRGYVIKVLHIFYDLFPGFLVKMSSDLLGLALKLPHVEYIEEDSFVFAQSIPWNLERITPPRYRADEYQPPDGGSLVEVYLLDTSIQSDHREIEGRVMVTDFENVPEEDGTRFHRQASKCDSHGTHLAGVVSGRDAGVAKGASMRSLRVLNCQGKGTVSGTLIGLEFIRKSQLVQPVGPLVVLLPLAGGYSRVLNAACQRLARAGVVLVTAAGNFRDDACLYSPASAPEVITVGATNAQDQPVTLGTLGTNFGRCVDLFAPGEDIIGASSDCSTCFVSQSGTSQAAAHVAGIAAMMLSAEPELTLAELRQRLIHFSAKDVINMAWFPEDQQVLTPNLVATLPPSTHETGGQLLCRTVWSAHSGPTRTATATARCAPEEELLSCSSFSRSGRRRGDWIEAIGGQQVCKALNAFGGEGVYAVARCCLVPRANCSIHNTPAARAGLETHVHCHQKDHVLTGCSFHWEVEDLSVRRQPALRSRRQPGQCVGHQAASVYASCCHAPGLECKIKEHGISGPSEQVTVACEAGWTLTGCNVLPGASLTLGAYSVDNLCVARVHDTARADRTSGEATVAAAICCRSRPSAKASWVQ

T2: Chimeric protein #3 (mPro-mCat-hC-term-mmh) (mouse; human)
T2 chain: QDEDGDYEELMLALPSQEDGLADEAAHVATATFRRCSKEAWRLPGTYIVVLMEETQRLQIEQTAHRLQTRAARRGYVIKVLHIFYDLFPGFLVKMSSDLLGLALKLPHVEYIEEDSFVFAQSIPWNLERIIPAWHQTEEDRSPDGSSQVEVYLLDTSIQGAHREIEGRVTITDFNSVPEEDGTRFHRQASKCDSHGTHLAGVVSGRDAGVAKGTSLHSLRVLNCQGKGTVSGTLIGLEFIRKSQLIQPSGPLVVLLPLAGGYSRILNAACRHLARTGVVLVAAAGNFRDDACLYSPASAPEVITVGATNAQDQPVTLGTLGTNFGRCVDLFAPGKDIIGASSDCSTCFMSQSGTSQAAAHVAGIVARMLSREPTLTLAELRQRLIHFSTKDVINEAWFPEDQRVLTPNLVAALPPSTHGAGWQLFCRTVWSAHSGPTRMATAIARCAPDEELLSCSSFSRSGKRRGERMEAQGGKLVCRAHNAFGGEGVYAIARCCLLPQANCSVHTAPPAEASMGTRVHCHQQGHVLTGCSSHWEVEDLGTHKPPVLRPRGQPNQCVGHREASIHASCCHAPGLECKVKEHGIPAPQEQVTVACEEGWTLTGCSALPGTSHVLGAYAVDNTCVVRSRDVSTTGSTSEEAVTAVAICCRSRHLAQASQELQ

B1: H1H315P (antibody, V domains shown)
VH: QVQLVESGGGVVQPGRSLRLSCAASGFTFSSYGMHWVRQAPGKGLEWVAFIGFDGSNIYYGDSVRGRIIISRDNSENTLYLEMNSLRAEDTAVYYCAREKGLDWGQGTLVTVSS
VL: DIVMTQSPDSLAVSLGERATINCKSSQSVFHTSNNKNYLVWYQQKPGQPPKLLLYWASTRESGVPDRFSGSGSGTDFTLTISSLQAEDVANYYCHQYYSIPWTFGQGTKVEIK
notes: Fully human antibody cloned from B cells, made in CHO cells
B2: H1M498 (antibody, V domains shown)
VH: EVQLVESGGGLVKPGGSLRLSCAASGFTFSSYSMDWVRQAPGKGLEWVSSISSSSSYIYYADSVKGRFTISRDTAKNSLYLQMNSLRDEDTAVYYCAREGSSRLFDYWGQGTLVTVSS
VL: DIQMTQSPSTLSASVGDRVTITCRASQSISSWLAWYQQRPGKAPKLLIYKASSLEGGVPSRFSGSGSGTEFTLTISSLQPEDFATYYCQQYNSYWYTFGQGTKLEIK
notes: Hybridoma-derived chimeric antibody (human variable, mouse constant)
B3: H1H320P (antibody, V domains shown)
VH: QVQLVQSGAEVKKPGASVKVSCKASGYTFTNYGISWVRQAPGQGLELMGWISGYNGNTNYAQELQARVTMTTDTSTSTAYMELRNLRSDDTAVYYCARDRVVVAAANYYFYSMDVWGQGTTVTVSS
VL: DVVMTQSPLSLSVTLGQPASISCRSSQSLVYSDGDTYLNWFQQRPGQSPRRLIYKVSNRDSGVPDRFSGSGSGTAFTLKISGVEAEDVGVYYCMQATHWPRTFGQGTKVEIK
notes: as for B1
B4: H1H318P (antibody, V domains shown)
VH: QVQLQESGPGLVKPSETLSLTCTVSGDSINTYYWSWFRQPPGKGLEWIGYIYYSGTTNYNPSLKSRVTISIDTPRNQFSLKLISVTAADTAVYYCARERITMIRGVTLYYYSYGMDVWGQGTTVTVSS
VL: DIQMTQSPSFLSASVGDRVTITCWASQDISSYLAWYQQKPGIAPKLLIYAASTLQSGVPSRFGGSGSGTEFTLTISSLQPEDFATYYCQQLNSYPRTFGQGTKVEIK
notes: as for B1
B5: H1M300 (antibody, V domains shown)
VH: EMQLVESGGGLVQPGGSLRLSCAASGFTFSSHWMKWVRQAPGKGLEWVANINQDGSEKYYVDSVKGRFTISRDNAKNSLFLQMNSLRAEDTAVYYCARDIVLMVYDMDYYYYGMDVWGQGTTVTVSS
VL: not shown
notes: as for B2
B6: H1H321P (antibody, V domains shown)
VH: QITLKESGPTLVKPTQTLTLTCTFSGFSLITSGVGVGWIRQPPGKALEWLALIYWNGDKRYSPSLKSRLTITKDTSKNQVVLTMTNMDPVDTATYYCAHRITETSYYFYYGMDVWGQGTTVTVSS
VL: not shown
notes: as for B1
B7: H1H334P (antibody, V domains shown)
VH: QITLKESGPTLVKPSQTLTLTCTFSGFSLSTSGVGVGWIRQPPGKALEWLALIYWNSDKRYSPSLKSRLTITKDTSKNQVVLTMTNMDPVDTATYYCAHRHDSSSYYFYYGMDVWGQGTTVTVSS
VL: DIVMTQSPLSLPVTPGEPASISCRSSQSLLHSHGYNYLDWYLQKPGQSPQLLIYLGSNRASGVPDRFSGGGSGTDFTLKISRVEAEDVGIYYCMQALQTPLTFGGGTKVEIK
notes: as for B1
B8: H1H317P (antibody, V domains shown)
VH: EVQLVESGGGLVQPGGSLRLSCAVSGFTLSSYDMHWVRQPTGKGLEWVSAIGSTGDTYYPGSVKGRFTISRENAKNSLYLQMNSLRAGDTAVYYCAREGWDVPFDFWGQGTLVTVSS
VL: AIQMTQSPSSLSASVGDRVTITCRASQDIRNDLGWYQQKPGKAPKLLIYAASSLQSGVPSRFSGSGSGTDFTLTISSLQPEDFATYYCLQDYNYPWTFGQGTKVEIK
notes: as for B1
B9: H1M495 (antibody, V domains shown)
VH: EVQLVESGGGLVQPGRSLRLSCAASGFTFDDYAMHWVRQAPGKGLEWVSGINWNSGSIGYADSVKGRFTISRDNAKHSLYLQMNSLRPEDTALYYCVKEVTTGYYYGMDVWGQGTTVTVSS
VL: DIQLTQSPSFLSASVGDRVTITCWASQGISSYLAWYQKKPGKAPNLLIYDASTLQSGVPSRFSGSGSGTEFTLTLSSLQPEDFATYYCQQLNIYPFTFGPGTKVDIK
notes: as for B2

Experiments:
Human PCSK9-myc-myc-his [1] = molecular target: T3, Human PCSK9-myc-myc-his (human, UniProt Q8NBP7 31-692); test: SPR, mAb captured, 25C
T3 construct: also called hPCSK9-mmh; hPCSK9
Description: (§1) Each selected antibody was captured at a flowrate of 2 μl/min for 6 min on a goat anti-human IgG polyclonal antibody surface created through direct chemical coupling to a BIACORE™ chip to form a captured antibody surface.

Human PCSK9-myc-myc-his [2] = molecular target: T3, Human PCSK9-myc-myc-his; test: SPR, mAb captured, 37C
Description: as §1

[3] = molecular target: T4, tagged rhesus monkey (Macaca mulata) PCSK9 (rhesus monkey (Macaca mulata), UniProt A8T666 31-692); test: SPR, 25C
T4 construct: also called mmPCSK9-mmh; mmPCSK9

Human PCSK9-myc-myc-his [4] = molecular target: T3, Human PCSK9-myc-myc-his; test: SPR, mAb captured, 25C; remark: listed apart in the source
Description: (§2) Each antibody was captured at a flow rate of 4 μl/min for 90 sec on a goat anti-mouse IgG polyclonal antibody surface created through direct chemical coupling to a BIACORE™ chip to form a captured antibody surface.

Human PCSK9-myc-myc-his [5] = molecular target: T3, Human PCSK9-myc-myc-his; test: SPR, mAb captured, 37C; remark: listed apart in the source
Description: as §2

[6] = molecular target: T1, Chimeric protein #1 …; test: ELISA, mAb coated, 1.2 nM antigen;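 further: antigen allowed to bind for 1 h at room temperature, then captured protein revealed with an HRP-linked polyclonal anti-myc antibody and read as optical density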
Excerpt: (§3) After 1 hr binding at RT, the plate was washed and bound test protein detected using HRP-conjugated anti-myc polyclonal antibody (++=OD>1.0; +=OD 0.4-1.0; −=OD<0.4).

Human PCSK9-myc-myc-his [7] = molecular target: T3, Human PCSK9-myc-myc-his; test: ELISA, mAb coated, 1.2 nM antigen;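 further: antigen allowed to bind for 1 h at room temperature, then captured protein revealed with an HRP-linked polyclonal anti-myc antibody and read as optical density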
Excerpt: as §3

[8] = molecular target: T2, Chimeric protein #3 …; test: ELISA, mAb coated, 1.2 nM antigen;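 further: antigen allowed to bind for 1 h at room temperature, then captured protein revealed with an HRP-linked polyclonal anti-myc antibody and read as optical density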
Excerpt: as §3

[9] = molecular target: Chimeric protein #2 (hPro-mCat-mC-term-mmh) (human; mouse, UniProt Q80W65 19-694); test: ELISA, mAb coated, 1.2 nM antigen;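 further: antigen allowed to bind for 1 h at room temperature, then captured protein revealed with an HRP-linked polyclonal anti-myc antibody and read as optical density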
Excerpt: as §3

hPCSK9(D374Y)-mmh = molecular target: T5, hPCSK9(D374Y)-mmh (human, UniProt Q8NBP7 31-692); test: ELISA, mAb coated, 1.2 nM antigen
T5 construct: also called hPCSK(D374Y)-mmh
Excerpt: as §3

[10] = molecular target: T6, mouse PCSK9, myc-myc-his tagged (mouse, UniProt Q80W65 35-694); test: ELISA, mAb coated, 1.2 nM antigen
T6 construct: also called mPCSK9-mmh; mPCSK9
Excerpt: as §3

T4 sequence (A8T666 31-692 limits assumed): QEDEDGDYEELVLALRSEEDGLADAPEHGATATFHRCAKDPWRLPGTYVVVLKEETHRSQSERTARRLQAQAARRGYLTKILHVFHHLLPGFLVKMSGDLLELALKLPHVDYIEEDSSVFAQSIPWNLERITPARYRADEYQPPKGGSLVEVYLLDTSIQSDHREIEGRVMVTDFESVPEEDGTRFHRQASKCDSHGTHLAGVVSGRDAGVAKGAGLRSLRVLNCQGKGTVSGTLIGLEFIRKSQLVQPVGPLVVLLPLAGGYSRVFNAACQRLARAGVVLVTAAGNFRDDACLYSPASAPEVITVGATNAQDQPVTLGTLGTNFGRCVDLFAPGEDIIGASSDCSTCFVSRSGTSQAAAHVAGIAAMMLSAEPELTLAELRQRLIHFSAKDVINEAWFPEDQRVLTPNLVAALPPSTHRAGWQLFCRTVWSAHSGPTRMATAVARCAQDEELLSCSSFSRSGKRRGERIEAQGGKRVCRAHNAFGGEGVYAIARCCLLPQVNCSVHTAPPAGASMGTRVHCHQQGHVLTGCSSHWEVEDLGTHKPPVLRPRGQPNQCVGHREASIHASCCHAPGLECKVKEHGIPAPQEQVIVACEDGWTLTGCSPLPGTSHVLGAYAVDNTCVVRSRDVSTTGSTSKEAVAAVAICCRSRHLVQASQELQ

Row | Binder | Kd (Human PCSK9-myc-myc-his [1]) | T1/2 (Human PCSK9-myc-myc-his [1]) | Kd (Human PCSK9-myc-myc-his [2]) | T1/2 (Human PCSK9-myc-myc-his [2]) | T1/2 [3] | koff [3] | Kd (Human PCSK9-myc-myc-his [4]) | T1/2 (Human PCSK9-myc-myc-his [4]) | Kd (Human PCSK9-myc-myc-his [5]) | T1/2 (Human PCSK9-myc-myc-his [5]) | OD [6] | OD (Human PCSK9-myc-myc-his [7]) | OD [8] | OD [9] | OD (hPCSK9(D374Y)-mmh) | OD [10]
1 | B1 | 0.129 nM | 151 min | 0.413 nM | 35 min | 51 min | 0.000229 s⁻¹ |  |  |  |  |  |  |  |  |  | 
2 | B2 |  |  |  |  |  |  | 6.4 nM | 30 min | 7.5 nM | 14 min | < 0.4 od | > 1 od | 0.4 to 1 od | < 0.4 od | > 1 od | < 0.4 od
3 | B3 | 0.771 nM | 28 min | 1.93 nM | 8 min | 36 min | 0.000317 s⁻¹ |  |  |  |  | < 0.4 od | > 1 od | < 0.4 od | > 1 od | > 1 od | < 0.4 od
4 | B4 | 0.972 nM | 59 min | 1.69 nM | 28 min | 3 min | 0.00369 s⁻¹ |  |  |  |  | > 1 od | > 1 od | < 0.4 od | < 0.4 od | > 1 od | < 0.4 od
5 | B5 |  |  |  |  | 76 min | 0.000152 s⁻¹ | 0.399 nM | 170 min | 1.51 nM | 32 min | > 1 od | > 1 od |  | 0.4 to 1 od | > 1 od | < 0.4 od
6 | B6 | 0.865 nM | 106 min | 3.36 nM | 23 min |  |  |  |  |  |  |  |  |  |  |  | 
7 | B7 | 3.75 nM | 46 min | 15.9 nM | 8 min | 1 min | 0.00806 s⁻¹ |  |  |  |  | > 1 od | > 1 od | < 0.4 od | < 0.4 od | > 1 od | < 0.4 od
8 | B8 | 30.4 nM | 137 min | 18.6 nM | 70 min |  |  |  |  |  |  |  |  |  |  |  | 
9 | B9 |  |  |  |  |  |  | 0.44 nM | 222 min | 7.5 nM | 19 min | < 0.4 od | > 1 od | > 1 od | < 0.4 od | > 1 od | < 0.4 od
